Results reported in the Immune Epitope Database (IEDB).

Assays:
HLA-A*26:01 [1] = experiment: IEDB peptide-MHC binding, purified MHC/competitive/fluorescence; filed as Kd, often an IC50 or EC50 that approximates it; ≥ and ≤ were set here for values at or beyond the usual limits of such assays
HLA-B*35:01 = experiment: IEDB peptide-MHC binding, purified MHC/competitive/radioactivity; filed as Kd, often an IC50 or EC50 that approximates it; ≥ and ≤ were set here for values at or beyond the usual limits of such assays; settings: source organism: Dengue virus 4 Philippines/H241/1956
HLA-A*32:01 = experiment: as above
HLA-B*18:01 = experiment: IEDB peptide-MHC binding, purified MHC/direct/fluorescence; filed as Kd, often an IC50 or EC50 that approximates it; ≥ and ≤ were set here for values at or beyond the usual limits of such assays; settings: source organism: Bacillus cereus H3081.97
HLA-B*08:01 = experiment: IEDB peptide-MHC binding, purified MHC/competitive/radioactivity; filed as Kd, often an IC50 or EC50 that approximates it; ≥ and ≤ were set here for values at or beyond the usual limits of such assays
HLA-A*01:01 = experiment: as above; settings: source organism: Lymphocytic choriomeningitis virus (strain WE)
HLA-A*29:02 = experiment: as above; settings: source organism: Lymphocytic choriomeningitis virus (strain WE)
HLA-A*26:01 [2] = experiment: as above; settings: source organism: Lymphocytic choriomeningitis virus (strain WE)
HLA-A*30:01 = experiment: as above; settings: source organism: Lymphocytic choriomeningitis virus (strain WE)
HLA-A*30:02 = experiment: as above; settings: source organism: Lymphocytic choriomeningitis virus (strain WE)
HLA-A*02:06 = experiment: as above; settings: source organism: Vaccinia virus WR
HLA-A*02:02 = experiment: as above; settings: source organism: Vaccinia virus WR
HLA-A*02:03 = experiment: as above; settings: source organism: Vaccinia virus WR
HLA-B*44:03 = experiment: as above
HLA-B*44:02 = experiment: as above
HLA-B*40:01 = experiment: as above
[3] = source organism: Dengue virus 3 Martinique/1243/1999
[4] = source organism: Vaccinia virus WR
[5] = source organism: Dengue virus 1 Brazil/97-11/1997
[6] = source organism: Dengue virus 2 Jamaica/1409/1983
[7] = source organism: Dengue virus 4 Philippines/H241/1956

EAAGIAACL showed a Kd (HLA-A*26:01 [1]; source organism: Escherichia coli F11) of 14.6 nM.
With FIRSTMPLVM the Kd (HLA-B*35:01) was 2960 nM.
WMVHRQWFFD gave a Kd (HLA-A*32:01; [3]) of 4960 nM.
For LSNGASLTI, the Kd (HLA-A*32:01; [4]) was 73.5 nM.
Sequence FPVQFFIVF has a Kd (HLA-B*18:01) of no less than 20000 nM.
Work on TAIANQAAIL yielded a Kd (HLA-B*08:01; [5]) of 422 nM.
DVLRQYVLM showed a Kd (HLA-A*26:01 [1]; source organism: Escherichia coli) of 2140 nM.
MTKEASREY gave a Kd (HLA-A*01:01) of 3010 nM, a Kd (HLA-A*32:01; source organism: Lymphocytic choriomeningitis virus (strain WE)) of no less than 56800 nM and a Kd (HLA-A*29:02) of 616 nM. For the same sequence, the Kd (HLA-A*26:01 [2]) was 17.7 nM, the Kd (HLA-A*30:01) was 108 nM and the Kd (HLA-A*30:02) was 67.5 nM.
For IVYGRSNAI, the Kd (HLA-A*02:06) was 30.2 nM, the Kd (HLA-A*02:02) was 14.9 nM and the Kd (HLA-A*02:03) was 15.8 nM. For the same sequence, the Kd (HLA-A*32:01; [4]) was 3.15 nM.
With KELEGILLP the Kd (HLA-B*44:03; source organism: Homo sapiens) was 356 nM.
For TRKVRSNAA, the Kd (HLA-B*08:01; [6]) was 6.25 nM.
NEMILMKMK was tested, and the Kd (HLA-B*44:03; [7]) was 2910 nM and the Kd (HLA-B*44:02; [7]) was 400 nM.
KEISNMLSII was tested, and the Kd (HLA-B*44:03; [3]) was 267 nM, the Kd (HLA-B*40:01; [3]) was 52.2 nM and the Kd (HLA-B*44:02; [3]) was 29.4 nM.
MLKRARNRV was tested, and the Kd (HLA-B*08:01; [5]) was 25 nM.
With DEDCAHWKEA the Kd (HLA-A*32:01; [6]) was no less than 69900 nM.
AEISGSSPI gave a Kd (HLA-B*44:03; [6]) of 25.5 nM, a Kd (HLA-B*40:01; [6]) of 0.66 nM and a Kd (HLA-B*44:02; [6]) of 14.6 nM.
